Data as given in paper doi:10.1101/2024.07.31.606000.

Biological target: recombinant full-length thrombospondin-1 (human) (UniProt P07996)
Assay: SPR

Sequence of recombinant full-length thrombospondin-1 (human) (P07996 19-1170): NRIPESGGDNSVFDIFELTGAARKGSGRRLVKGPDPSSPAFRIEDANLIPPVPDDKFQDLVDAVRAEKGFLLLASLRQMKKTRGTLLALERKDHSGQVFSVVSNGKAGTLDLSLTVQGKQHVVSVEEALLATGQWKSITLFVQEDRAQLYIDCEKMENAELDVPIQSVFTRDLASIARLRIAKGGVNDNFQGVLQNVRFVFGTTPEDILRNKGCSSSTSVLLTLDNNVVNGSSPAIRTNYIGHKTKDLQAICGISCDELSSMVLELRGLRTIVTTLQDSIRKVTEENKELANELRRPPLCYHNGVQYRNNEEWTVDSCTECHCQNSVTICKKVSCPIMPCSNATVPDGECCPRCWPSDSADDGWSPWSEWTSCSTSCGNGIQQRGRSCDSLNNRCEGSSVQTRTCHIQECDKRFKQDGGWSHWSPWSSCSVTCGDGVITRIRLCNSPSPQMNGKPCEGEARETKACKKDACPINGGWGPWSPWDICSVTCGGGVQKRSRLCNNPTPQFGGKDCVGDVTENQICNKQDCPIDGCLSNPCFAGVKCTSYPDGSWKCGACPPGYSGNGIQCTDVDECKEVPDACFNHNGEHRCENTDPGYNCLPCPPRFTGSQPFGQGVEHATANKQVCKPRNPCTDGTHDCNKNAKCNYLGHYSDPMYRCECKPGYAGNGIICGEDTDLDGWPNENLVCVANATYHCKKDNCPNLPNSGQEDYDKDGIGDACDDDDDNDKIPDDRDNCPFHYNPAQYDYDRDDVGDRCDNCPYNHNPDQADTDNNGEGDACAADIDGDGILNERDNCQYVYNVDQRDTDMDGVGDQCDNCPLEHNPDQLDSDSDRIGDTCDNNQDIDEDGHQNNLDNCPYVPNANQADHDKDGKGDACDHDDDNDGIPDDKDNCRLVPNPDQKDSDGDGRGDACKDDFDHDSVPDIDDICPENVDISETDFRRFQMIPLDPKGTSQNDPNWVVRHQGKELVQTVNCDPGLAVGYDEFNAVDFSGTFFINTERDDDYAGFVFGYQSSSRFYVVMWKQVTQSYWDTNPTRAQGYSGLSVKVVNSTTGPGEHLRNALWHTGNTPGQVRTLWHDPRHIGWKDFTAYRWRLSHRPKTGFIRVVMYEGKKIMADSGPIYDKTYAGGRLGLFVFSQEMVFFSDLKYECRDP

complement C5 (natural protein)
Kd: 47 nM

complement C3 (natural protein)
Kd: 127 nM
